Test results as given in article PMC10696041.

B1: MBP-CUB1CUB2 domains of PCPE-2, WT [human] / bone morphogenetic protein-1 [human] (parent)
chain 1: QSPERPVFTCGGILTGESGFIGSEGFPGVYPPNSKCTWKITVPEGKVVVLNFRFIDLESDNLCRYDFVDVYNGHANGQRIGRFCGTFRPGALVSSGNKMMVQMISDANTAGNGFMAMFSAAEPNERGDQYCGGLLDRPSGSFKTPNWPDRDYPAGVTCVWHIVAPKNQLIELKFEKFDVERDNYCRYDYVAVFNGGEVNDARRIGKYCGDSPPAPIVSERNELLIQFLSDLSLTADGFIGHYIFRPK
chain 2: AATSRPERVWPDGVIPFVIGGNFTGSQRAVFRQAMRHWEKHTCVTFLERTDEDSYIVFTYRPCGCCSYVGRRGGGPQAISIGKNCDKFGIVVHELGHVVGFWHEHTRPDRDRHVSIVRENIQPGQEYNFLKMEPQEVESLGETYDFDSIMHYARNTFSRGIFLDTIVPKYEVNGVKPPIGQRTRLSKGDIAQARKLYKCPACGETLQDSTGNFSSPEYPNGYSAHMHCVWRISVTPGEKIILNFTSLDLYRSRLCWYDYVEVRDGFWRKAPLRGRFCGSKLPEPIVSTDSRLWVEFRSSSNWVGKGFFAVYEAICGGDVKKDYGHIQSPNYPDDYRPSKVCIWRIQVSEGFHVGLTFQSFEIERHDSCAYDYLEVRDGHSESSTLIGRYCGYEKPDDIKSTSSRLWLKFVSDGSINKAGFAVNFFKEVDECSRPNRGGCEQRCLNTLGSYKCSCDPGYELAPDKRRCEAACGGFLTKLNGSITSPGWPKEYPPNKNCIWQLVAPTQYRISLQFDFFETEGNDVCKYDFVEVRSGLTADSKLHGKFCGSEKPEVITSQYNNMRVEFKSDNTVSKKGFKAHFFSEKRPALQPPRGRPHQLKFRVQKRNRTPQ

Variants of: B1
Test: SPR
Settings: with bone morphogenetic protein-1 [human]; 50 nM MBP-CUB1CUB2; immobilized BMP-1 (1302 RU); parent: 17; read off a plot

response	Variant
16 RU	chain 1 QSPERPVFTCGGILTGESGFIGSEGFPGVYPPNSKCTWKITVPEGKVVVLNFRFIDLESDNLCRYDFVDVYNGHANGQRIGRFCGTARPGALVSSGNKMMVQMISDANTAGNGFMAMFSAAEPNERGDQYCGGLLDRPSGSFKTPNWPDRDYPAGVTCVWHIVAPKNQLIELKFEKFDVERDNYCRYDYVAVFNGGEVNDARRIGKYCGDSPPAPIVSERNELLIQFLSDLSLTADGFIGHYIFRPK [chain 1 F87A]
7.2 RU	chain 1 QSPERPVFTCGGILTGESGFIGSEGFPGVYPPNSKCTWKITVPEGAVVVLNFRFIDLESDNLCRYDFVDVYNGHANGQRIGRFCGTFRPGALVSSGNKMMVQMISDANTAGNGFMAMFSAAEPNERGDQYCGGLLDRPSGSFKTPNWPDRDYPAGVTCVWHIVAPKNQLIELKFEKFDVERDNYCRYDYVAVFNGGAVNDARRIGKYCGDSPPAPIVSEANELLIQFLSDLSLTADGFIGHYIFRPK [chain 1 K46A E197A R220A]
18 RU	chain 1 QSPERPVFTCGGILTGESGFIGSEGFPGVYPPNSKCTWKITVPEGKVVVLNFRFIDLESDNLCRYDFVDVYNGHANGQRIGRFCGTFRPGALVSSGNKMMVQMISDANTAGNGFMAMFSAAEPNERGDQYCGGLLDRPSGSFKTPNWPDADYPAGVTCVWHIVAPKNQLIELKFEKFDVERDNYCRYDYVAVFNGGEVNDARRIGKYCGDSPPAPIVSERNELLIQFLSDLSLTADGFIGHYIFRPK [chain 1 R150A]

Same assay, conditions: with bone morphogenetic protein-1 [human]; 50 nM MBP-CUB1CUB2; immobilized BMP-1 (1302 and 1492 RU); parent: 100; read off a plot

percent of parent (% binding / WT)	Variant
40	chain 1 QSPERPVFTCGGILTGESGFIGSEGFPGVYPPNSKCTWKITVPEGAVVVLNFRFIDLESDNLCRYDFVDVYNGHANGQRIGRFCGTFRPGALVSSGNKMMVQMISDANTAGNGFMAMFSAAEPNERGDQYCGGLLDRPSGSFKTPNWPDRDYPAGVTCVWHIVAPKNQLIELKFEKFDVERDNYCRYDYVAVFNGGAVNDARRIGKYCGDSPPAPIVSEANELLIQFLSDLSLTADGFIGHYIFRPK [chain 1 K46A E197A R220A]
